The assay concerns the target bFGF receptor molecules present on the surface of the B16 cells (mouse). The assay can be described thus: cell-based or functional assay.

As for “bFGF-MLA/rMLB associated fusion protein (bFGF-MLA coupled to rMLB under co-folding) (from UniProt P09038 134-288)”, the cytotoxic effect on B16 cells (MTT viability), IC50 came to 0.01 µg/mL and the improvement of the IC50 value on B16 cells against bFGF-MLA was determined as 5 fold.

Regarding “bFGF-MLA fusion protein (basic fibroblast growth factor fused to the N terminus of rMLA) (from UniProt P09038 134-288)”, the cytotoxic activity on B16 cells (WST-1 viability), IC50 turned out to be 0.048 µg/mL and the increase of toxicity against rMLA alone on B16 cells is more than 100 fold.

The values above are taken from patent US20020045208A1.
